In patent US20060246095A1, “Multiepitope polypeptides for cancer immunotherapy” (HADASIT MEDICAL RESEARCH SERVICES & DEVELOPMENT LTD., priority 2003, published 2006):

What was measured:
[1] = test system: DC; test: DC maturation in vitro (preliminary data); format: cell-based
Text: A non-toxic form of LT (NLT) was produced by the present inventors. […] Thus, NLT and LTB could be developed as a delivery system for the presentation of tumor antigens to the immune system.

[2] = LTB-MEP fusion protein functional assay (GM1 ganglioside ELISA, anti-MEP detection); format: binding; settings: GM1 ganglioside coated plates, chicken anti-MEP antibodies
Method: LTB-MEP fusion protein expressed by the recombinant pQE30-LTB-MEP construct was tested for its ability to bind GM1 ganglioside and anti-MEP antibodies. LTB-MEP fusion protein was incubated in ELISA plates coated with GM1 ganglioside (which binds to native LTB) with chicken anti-MEP antibodies.
Only LTB-MEP molecules with functional LTB and MEP units can be detected by this assay. Boiled LTB-MEP protein losses its capability to bind to GM1 ganglioside and therefore could not be detected.
A BamHI-HindIII fragment encoding for MEP (SEQ ID NO: 1) was attached to a KpnI-HindIII fragment encoding for LTB (SEQ ID NO: 52) through a polynucleotide linker. The ligated product was cloned into pQE30 vector and transformed into E. Coli (JM109 strain). LTB-MEP fusion protein expressed in bacteria, was purified and further characterized by ELISA assay. Ganglioside GM1 coated plates were incubated at 37° C. in the presence of native or boiled LTB-MEP fusion protein, purified LTB and pQE30 DNA expression vector (without insert) molecules. […] LTB molecule is sensitive to temperature and heat treatment destroys its capability to bind to GM1 ganglioside. Since binding detection was performed using chicken anti-MEP antibodies only active LTB-MEP fusion protein could be detected.

B1: Purified LTB (protein)
chain: APQTITELCSEYRNTQIYTINDKILSYTESMAGKREMVIITFKSGETFQVEVPGSQHIDSQKKAIERMKDTLRITYLTETKIDKLCVWNNKTPNSIAAISMKN
[1]
  DC maturation: induce DC maturation in vitro
[2]; treatment 37° C.
  OD 450 nm: 1.05
[2]; treatment Boiled
  OD 450 nm: 0.98
